# Experimental data from patent US5935824A, “Protein expression system” (Technologene, Inc., priority 1996, dated 1999).
# No end group written: not given here.
# Tests used:
# [1] = molecular target: T1, carboxypeptidase Y (CPD-Y) immobilized to Acti-Disk (Saccharomyces cerevisiae, UniProt P00729); assay: Flow digestion of control peptide through CPD-Y immobilized on Acti-Disk, HPLC analysis; type: biochemical, yeast
# T1 construct: purchased Sigma
# T1 sequence (P00729 112-532): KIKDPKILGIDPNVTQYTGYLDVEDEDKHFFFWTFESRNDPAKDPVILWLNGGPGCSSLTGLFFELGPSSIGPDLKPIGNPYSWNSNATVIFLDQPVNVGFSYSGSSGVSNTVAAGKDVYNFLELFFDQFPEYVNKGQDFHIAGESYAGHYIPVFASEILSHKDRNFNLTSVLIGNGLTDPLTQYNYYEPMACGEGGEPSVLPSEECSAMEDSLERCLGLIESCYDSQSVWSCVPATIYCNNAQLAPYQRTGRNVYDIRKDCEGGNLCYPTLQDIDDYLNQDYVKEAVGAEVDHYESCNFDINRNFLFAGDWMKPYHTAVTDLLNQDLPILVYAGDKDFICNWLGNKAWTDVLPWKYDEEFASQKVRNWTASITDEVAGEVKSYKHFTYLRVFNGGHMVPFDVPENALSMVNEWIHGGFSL
# Experimental: To achieve limited, specific digestion of the control peptide (i.e., removal of the phenylalanine residue only) approximately 4 mg of CPD-Y (Sigma) was immobilized to a pre-activated (GTA) Acti-Disk Cartridge (25 mm; Arbor Technologies). The silicon-based matrix within the Acti-Disk is described in U.S. Pat. No. 3,862,030, the disclosure of which is herein incorporated by reference. Essentially, this matrix is a microporous fluid-permeable filter that has finely divided hydrophilic filler particles dispersed throughout a microporous matrix which are capable of binding large amounts of protein or enzyme. The matrix has an extremely large surface area (80 m^2 /gram) attributed to a large number of interconnected pores of non-uniform size distribution. The matrix is 60% porous and is commercially available in a wide variety of sizes and thicknesses for scale-up. This matrix represents a limited-diffusional matrix.
# Immobilization of CPD-Y to the Acti-Disk cartridge was accomplished by recirculating 10 mls of a solution containing 1 mg/ml CPD-Y in 100 mM Na Citrate (pH 6.0) through the Acti-Disk according to the manufacturers protocol for 90 minutes at room temperature. The OD280 of the CPD-Y solution was measured before and after the immobilization procedure. The disk was washed extensively with 100 mM Tris-HCl (pH 8.0), 500 mM NaCl buffer until no protein was detected in the wash. The final concentration of enzyme per available fluid volume within the disk (65 nmoles/115 μl) was 0.565 mM (35 mg/ml). The porous nature of the Acti-Disk matrix immobilizes the carboxypeptidase enzyme on the […] of the matrix allowing a more consistent exposure of the substrate to enzyme than do the traditional cross linked agarose matrixes.
# The control peptide (SEQ ID NO:70), at a concentration of 100 μg/ml, was passed through the CPD-Y Disk at flow rates ranging from 4 ml/min to 100 μl/min; a […] pump (Pharmacia) was used to regulate the flow. A 2 ml sample of the flow digestion at 4 ml/min was collected. The setting on the peristaltic pump was changed to 3 ml/min and the reaction was allowed to equilibrate. Five milliliters of the solution containing the control peptide processed at the lower flow rate (3 ml/min) was allowed to pass through the exit tubing before another 2 ml sample was collected. This procedure was repeated at each designated flow rate. An aliquot (25 μl) of each sample was run on the Hytach protein column as described above. In Table 4 the time refers to time spent in the reaction chamber (i.e., the Acti-Disk).
# This value was determined by comparing the initial velocity of the control peptide CPD-Y-Acti-Disk flow digestion to the manufacturer's specific activity for free enzyme (i.e., enzyme present in solution) through the use of the Michaelis-Menton rate equation. The specific activity for Phe-Ala substrate 100 μmoles/mg (Sigma) was converted to activity by multiplying by the amount of enzyme immobilized within the Acti-Disk matrix (4 mg). […] This value compares well to the value that can be approximated from the Kcat data provided by Kuhn. The Kcat value for the cleavage of the Ser-Phe bond by free CPD-Y can be deduced from Kuhn's data to be approximately 400/min and this value was used to calculate the maximum initial velocity (Vo at [S]=79 μM) for 100% activity of the immobilized enzyme. […] 100% activity (Vo) for 79 μM flow digestion experiments is calculated using the theoretical KM =0.69 mM deduced from Kuhn's data, Vo=23.2 mM/min. Initial velocity Vo for control peptide flow experiments were determined by plotting μM of product produced versus seconds of incubation within the immobilization matrix of the Acti-Disk (see FIG. 29).
# In FIG. 29, the log ([S]/[S]-[P]) (in μM) is plotted against the incubation time (in seconds). For the results shown in FIG. 29, the following calculations apply: the 4000 μl/min flow rate through 115 μl reaction matrix equals 1.73 seconds within the matrix. […]
# [2] = molecular target: T2, CPD-Y immobilized on cross-linked agarose (Saccharomyces cerevisiae, UniProt P00729); assay: Recirculating digestion of control peptide over CPD-Y/agarose column, HPLC; type: biochemical, yeast; conditions: 100 μg/ml in PBS pH 6.5; gravity flow
# T2 construct: purchased Pierce
# T2 sequence (P00729 112-532): T1 sequence (P00729 112-532)
# Experimental: Ten milliliters of a solution containing 100 μg/ml of the control peptide in PBS (pH 6.5) was repeatedly passed through 1 ml of a matrix consisting of CPD-Y immobilized on cross-linked agarose (12.5 U/ml, Pierce). The 10 ml sample was applied to the top of a 1.0 cm Affinica column (Schleicher & Schuell) containing 1.0 ml of the immobilized CPD-Y/agarose and allowed to flow by gravity. An aliquot (100 μl) of the digestion reaction were taken and the remaining sample was reapplied to the column as the previous sample approached the matrix (i.e., the sample was recirculated through the column). Aliquots (100 μl) were removed after 1, 5, 11 and 17 passes over the immobilized CPD-Y/agarose column; 20 μl of these aliquots were analyzed by high pressure liquid chromatography (HPLC) using a TFA/acetonitrile gradient and a C-18 column (Hytach protein column). A Shimadzu HPLC spectrophotometer equipped with a UV recorder was adjusted to analyze the digestion products at 210 nm. The following buffers were used for the HPLC analysis. Buffer A consisted of 1.125% TFA and Buffer B consisted of 1.0% TFA in 80% acetonitrile. To achieve separation of the peptides produced by CPD-Y digestion of the control peptide, a gradient of 0-30% B buffer was applied over a 30 minute period.
# [3] = molecular target: T1, carboxypeptidase Y (CPD-Y) immobilized to Acti-Disk; conditions: free CPD-Y; deduced from Kuhn; cited from earlier work
# [4] = molecular target: T1, carboxypeptidase Y (CPD-Y) immobilized to Acti-Disk; assay: Flow digestion of Lys-Lys peptide through CPD-Y Acti Disk, modified ninhydrin assay; type: biochemical, yeast; conditions: 400 μM peptide; pH 5.75; flow 2 ml/min and 500 μl/min
# Experimental: The peptide sequence is […](SEQ ID NO:73) (Sigma; herein after referred to as the Lys-Lys peptide). Analysis of the of the reaction rates required the use of a modified ninhydrin assay developed by Doi, et al. for the analysis of peptidase activity [Anal. Biochem. 118:173 (1981)]. Compared to the ninhydrin assays described above, the pH of the ninhydrin solution is reduced (pH=4.6) and the heating time is shortened (less than or equal to 20 minutes) such that only free amino acids react at appreciable rates. Incubation times were strictly controlled by performing incubation at elevated temperatures in a programmable thermocycler (Hybaid).
# The Lys-Lys peptide was suspended at a concentration of 400 μM in 100 mM Citrate buffer, 100 mM NaCl, pH 5.75 and subjected to flow digestions at 2 ml/min and 500 μl/min. The amount of free lysine released was quantified by mixing 200 μl of flow sample with 200 μl 0.2 M NaCitrate, pH 4.6 and 100 μl of 2.5% ninhydrin in methyl cellusolve (Sigma), 0.03% ascorbic acid. […] The OD570 was determined and the values were converted to μM of product in order to determine the first order rate constant for the Lys-Lys bond in the CPD-Y Acti Disk flow digestion (k=0.160). This is the same value determined for the N-CBZ-Gly-Pro dipeptide. […]
sequence,measurement,setting,value
ALKDAQTNSSSF [control peptide],"Initial reaction rate (Vo), observed","[1]; 79 μM control peptide, initial slope of fitted curve",~3.6 mM/min
same,Cleavage of the ultimate bond (Ser-Phe),"[1]; 100 μg/ml, single pass, flow rate 500 μl/ml (so in the source)",86%
same,Cleavage of the ultimate bond (Ser-Phe),[1]; 5 ml recirculated 20 minutes at the same flow rate,96%
same,Vmax for 100% activity,[1]; Kcat 400/min × 0.565 mM enzyme,226 mM/min
same,Vo for 100% activity of the immobilized enzyme,"[1]; [S]=79 μM, theoretical KM 0.69 mM",23.2 mM/min
same,Product,"[1]; control peptide 100 μg/ml, flow rate 0.25 ml/min, 27.6 sec in Acti-Disk",72 µM
same,% Product Remaining,"[1]; control peptide 100 μg/ml, flow rate 0.25 ml/min, 27.6 sec in Acti-Disk, 0.46 min",8.3%
same,Product,"[1]; flow rate 0.50 ml/min, 13.8 sec",68 µM
same,% Product Remaining,"[1]; flow rate 0.50 ml/min, 13.8 sec, 0.23 min",14.0%
same,Product,"[1]; flow rate 1.0 ml/min, 6.9 sec",59 µM
same,% Product Remaining,"[1]; flow rate 1.0 ml/min, 6.9 sec, 0.115 min",25.6%
same,Product,"[1]; flow rate 1.5 ml/min, 4.6 sec",54 µM
same,% Product Remaining,"[1]; flow rate 1.5 ml/min, 4.6 sec, 0.0766667 min",32.4%
same,Product,"[1]; flow rate 2.0 ml/min, 3.45 sec",48 µM
same,% Product Remaining,"[1]; flow rate 2.0 ml/min, 3.45 sec, 0.0575 min",38.7%
same,Product,"[1]; flow rate 2.5 ml/min, 2.76 sec",45 µM
same,% Product Remaining,"[1]; flow rate 2.5 ml/min, 2.76 sec, 0.046 min",42.8%
same,Product,"[1]; flow rate 3.0 ml/min, 2.3 sec",43 µM
same,% Product Remaining,"[1]; flow rate 3.0 ml/min, 2.3 sec, 0.0383333 min",46.4%
same,Product,"[1]; flow rate 4.0 ml/min, 1.73 sec",39 µM
same,% Product Remaining,"[1]; flow rate 4.0 ml/min, 1.73 sec, 0.0288333 min",51.5%
same,Cleavage of the second bond (Ser-Ser),[1]; recirculation at 500 μl/min,not detectably cleaved
same,Control peptide molecules with carboxy-terminal phenylalanine removed,[1]; varied flow rate and substrate concentration,approximately 96%
same,Passes needed to substantially decrease the amount of full length peptide,[2],> 15 passes
same,Estimated Km for the Ser-Phe bond,[3],690 µM
same,Kcat for the Ser-Phe bond,[3],6.67 s⁻¹
PLSRLSVAKK [Lys-Lys peptide],First order rate constant for the Lys-Lys bond (k),[4],0.160
